For data set [1], the system named is HeLa Kyoto. The data set can be described thus: solubility change mitosis vs G1/S (difference of NP-40 vs SDS log2 ratios) (log2 ratio difference); higher = more soluble in mitosis.
The test system of data set [2] is HeLa Kyoto. Put plainly: solubility in G1/S (NP-40 vs SDS abundance) (log2 ratio); higher = more soluble. Conditions: cell cycle stage: G1/S.
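Wherever solubility change mitosis vs G1/S (difference of NP-40 vs SDS log2 ratios) is given: synchronized HeLa Kyoto cells (double thymidine block for G1/S, nocodazole release for mitosis), protein amounts in NP-40 versus SDS lysates quantified by mass spectrometry, three biological replicates.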
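Wherever solubility in G1/S (NP-40 vs SDS abundance) is given: HeLa Kyoto cells arrested at G1/S by double thymidine block, proteins quantified by TMT10plex mass spectrometry in mild NP-40 versus SDS extracts, three biological replicates.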

SENP3, sequence (chain, as listed by the source): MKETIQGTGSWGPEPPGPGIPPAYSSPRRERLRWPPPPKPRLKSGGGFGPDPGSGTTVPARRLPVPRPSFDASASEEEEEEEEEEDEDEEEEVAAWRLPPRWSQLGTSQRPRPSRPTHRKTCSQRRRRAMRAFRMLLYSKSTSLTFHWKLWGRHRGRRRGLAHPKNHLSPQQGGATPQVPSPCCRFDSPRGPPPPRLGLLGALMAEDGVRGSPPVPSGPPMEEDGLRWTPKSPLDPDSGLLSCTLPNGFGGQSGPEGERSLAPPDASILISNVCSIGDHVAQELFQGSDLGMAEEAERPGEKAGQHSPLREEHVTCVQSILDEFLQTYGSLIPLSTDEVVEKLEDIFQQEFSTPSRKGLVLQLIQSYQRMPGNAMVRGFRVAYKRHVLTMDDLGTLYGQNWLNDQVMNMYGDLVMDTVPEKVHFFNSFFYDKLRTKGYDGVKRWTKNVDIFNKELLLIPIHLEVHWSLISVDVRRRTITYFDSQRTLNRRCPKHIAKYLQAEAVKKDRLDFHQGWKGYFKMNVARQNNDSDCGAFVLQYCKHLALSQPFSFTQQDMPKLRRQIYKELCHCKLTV
INPP5B, sequence (chain, as listed by the source): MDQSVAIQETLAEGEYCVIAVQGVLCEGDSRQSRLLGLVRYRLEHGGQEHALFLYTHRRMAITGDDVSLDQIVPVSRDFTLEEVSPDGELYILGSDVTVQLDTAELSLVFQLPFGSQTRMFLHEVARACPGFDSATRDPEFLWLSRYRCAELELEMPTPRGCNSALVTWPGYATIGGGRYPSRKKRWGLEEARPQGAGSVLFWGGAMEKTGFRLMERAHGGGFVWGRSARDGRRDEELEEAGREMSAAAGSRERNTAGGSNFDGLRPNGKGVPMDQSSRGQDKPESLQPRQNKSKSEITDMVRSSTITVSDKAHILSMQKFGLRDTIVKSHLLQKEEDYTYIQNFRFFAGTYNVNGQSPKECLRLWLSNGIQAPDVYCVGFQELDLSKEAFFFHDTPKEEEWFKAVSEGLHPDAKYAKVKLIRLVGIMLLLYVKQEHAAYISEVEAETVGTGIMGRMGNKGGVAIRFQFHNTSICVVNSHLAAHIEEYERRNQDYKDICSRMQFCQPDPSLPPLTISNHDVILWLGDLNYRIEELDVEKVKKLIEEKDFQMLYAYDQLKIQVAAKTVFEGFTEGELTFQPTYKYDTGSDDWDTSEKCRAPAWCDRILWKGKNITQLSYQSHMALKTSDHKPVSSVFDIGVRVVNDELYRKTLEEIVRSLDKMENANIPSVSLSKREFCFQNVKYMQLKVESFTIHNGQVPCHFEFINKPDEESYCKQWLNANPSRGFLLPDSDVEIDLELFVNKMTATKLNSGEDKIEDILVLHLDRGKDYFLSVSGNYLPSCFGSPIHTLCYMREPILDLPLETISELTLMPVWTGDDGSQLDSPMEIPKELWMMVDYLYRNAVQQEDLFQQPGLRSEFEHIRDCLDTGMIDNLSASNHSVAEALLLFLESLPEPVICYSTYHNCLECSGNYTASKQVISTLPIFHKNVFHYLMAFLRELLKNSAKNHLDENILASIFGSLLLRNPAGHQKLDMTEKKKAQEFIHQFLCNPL

Take “MGSQHSAAARPSSCRRKQEDDRDGLLAEREQEEAIAQFPYVEFTGRDSITCLTCQGTGYIPTEQVNELVALIPHSDQRLRPQRTKQYVLLSILLCLLASGLVVFFLFPHSVLVDDDGIKVVKVTFNKQDSLVILTIMATLKIRNSNFYTVAVTSLSSQIQYMNTVVSTYVTTNVSLIPPRSEQLVNFTGKAEMGGPFSYVYFFCTVPEILVHNIVIFMRTSVKISYIGLMTQSSLETHHYVDCGGNSTAI [TMEM106C]”: in data set [1], the “solubility change mitosis (log2)” value is -0.29. For the same substance, the “solubility in G1/S (log2)” value in data set [2] is 0.121.

As to SENP3, in data set [1], the “solubility change mitosis (log2)” value came to 1.04. For the same substance, the “solubility in G1/S (log2)” value in data set [2] was -1.5.

Turning to “MMDSPFLELWQSKAVSIREQLGLGDRPNDSYCYNSAKNSTVLQGVTFGGIPTVLLIDVSCFLFLILVFSIIRRRFWDYGRIALVSEADSESRFQRLSSTSSSGQQDFENELGCCPWLTAIFRLHDDQILEWCGEDAIHYLSFQRHIIFLLVVVSFLSLCVILPVNLSGDLLDKDPYSFGRTTIANLQTDNDLLWLHTIFAVIYLFLTVGFMRHHTQSIKYKEENLVRRTLFITGLPRDARKETVESHFRDAYPTCEVVDVQLCYNVAKLIYLCKEKKKTEKSLTYYTNLQVKTGQRTLINPKPCGQFCCCEVLGCEWEDAISYYTRMKDRLLERITEEERHVQDQPLGMAFVTFQEKSMATYILKDFNACKCQSLQCKGEPQPSSHSRELYTSKWTVTFAADPEDICWKNLSIQGLRWWLQWLGINFTLFLGLFFLTTPSIILSTMDKFNVTKPIHALNNPIISQFFPTLLLWSFSALLPSIVYYSTLLESHWTKSGENQIMMTKVYIFLIFMVLILPSLGLTSLDFFFRWLFDKTSSEASIRLECVFLPDQGAFFVNYVIASAFIGNGMELLRLPGLILYTFRMIMAKTAADRRNVKQNQAFQYEFGAMYAWMLCVFTVIVAYSITCPIIAPFGLIYILLKHMVDRHNLYFVYLPAKLEKGIHFAAVNQALAAPILCLFWLYFFSFLRLGMKAPATLFTFLVLLLTILVCLAHTCFGCFKHLSPLNYKTEEPASDKGSEAEAHMPPPFTPYVPRILNGLASERTALSPQQQQQQTYGAIHNISGTIPGQCLAQSATGSVAAAPQEA [TMEM63A]”, the “solubility change mitosis (log2)” value in data set [1] was 0.0055. Moreover, the “solubility in G1/S (log2)” value in data set [2] was -0.142.

Consider INPP5B, for which the “solubility change mitosis (log2)” value in data set [1] was -0.0113. In addition, in data set [2], the “solubility in G1/S (log2)” value was -0.143.

In the case of “MDTAEEDICRVCRSEGTPEKPLYHPCVCTGSIKFIHQECLVQWLKHSRKEYCELCKHRFAFTPIYSPDMPSRLPIQDIFAGLVTSIGTAIRYWFHYTLVAFAWLGVVPLTACRIYKCLFTGSVSSLLTLPLDMLSTENLLADCLQGCFVVTCTLCAFISLVWLREQIVHGGAPIWLEHAAPPFNAAGHHQNEAPAGGNGAENVAADQPANPPAENAVVGENPDAQDDQAEEEEEDNEEEDDAGVEDAADANNGAQDDMNWNALEWDRAAEELTWERMLGLDGSLVFLEHVFWVVSLNTLFILVFAFCPYHIGHFSLVGLGFEEHVQASHFEGLITTIVGYILLAITLIICHGLATLVKFHRSRRLLGVCYIVVKVSLLVVVEIGVFPLICGWWLDICSLEMFDATLKDRELSFQSAPGTTMFLHWLVGMVYVFYFASFILLLREVLRPGVLWFLRNLNDPDFNPVQEMIHLPIYRHLRRFILSVIVFGSIVLLMLWLPIRIIKSVLPNFLPYNVMLYSDAPVSELSLELLLLQVVLPALLEQGHTRQWLKGLVRAWTVTAGYLLDLHSYLLGDQEENENSANQQVNNNQHARNNNAIPVVGEGLHAAHQAILQQGGPVGFQPYRRPLNFPLRIFLLIVFMCITLLIASLICLTLPVFAGRWLMSFWTGTAKIHELYTAACGLYVCWLTIRAVTVMVAWMPQGRRVIFQKVKEWSLMIMKTLIVAVLLAGVVPLLLGLLFELVIVAPLRVPLDQTPLFYPWQDWALGVLHAKIIAAITLMGPQWWLKTVIEQVYANGIRNIDLHYIVRKLAAPVISVLLLSLCVPYVIASGVVPLLGVTAEMQNLVHRRIYPFLLMVVVLMAILSFQVRQFKRLYEHIKNDKYLVGQRLVNYERKSGKQGSSPPPPQSSQE [MARCH6]”, the “solubility change mitosis (log2)” value in data set [1] was 0.155. In addition, in data set [2], the “solubility in G1/S (log2)” value is -0.397.

For “MGVQGFQEFLEKRCPGAVVPVDLLKLARTVSRQQQQQHLHRQLPPTAALAPGAPRAARGSVPLQPPLPPAALGAYSGGAGPTRHHHPAHHFHHHGQAQPGLHPPLPPPPPPQLPGARVLVDAGSALPRLYGGYQTDWVCGGQWNAMLGYLSALCQACAYPGGDGLELVVMFPGGLGKDRLAEWGRRCQAERQTAQLIVGHVGNKGTPPPRAWFLPPACLSHCVRLALIRFRVKVFQSLEDHHLEVVAFFRENGFHGLLAHDSEYALYNIPSYYSSHALKLSWNGKNLTTNQFLMQEVAKQLGLKRMNFPIFAALLGNHILPDEDLAAFHWSLLGPEHPLASLKVRAHQLVLPPCDVVIKAVSEYVSSIKDPSNLDVVGKDVFKQSQSRTEDKIERFKKAVEYYSVTTKLSSLPVGPSFLGFRNNRLGNPPLPRNQVGTISAGKPMFSHQVPQKVKYPPPFPVGPNSSLLFSSHALGESHAFSEDPMLQNSPFANWAVSYDSSASQFPNYLPSKASPPLGPDSSHSSSSDGDEPNGASSDHITEAFHHQPEWGNPNRDRGSWAQPVDTGVSEASLGDGEPHIPSLLSMSTRNHMDITIPPLPPVAPEVLRVAEHRHRRGLMYPYIYHVLTKGEIKIPVCIEDECNMELPPAALLFRSARQYVYGVLFSLAETQRKMERLAMRRRLPVEVPSVILKEWSAYKGKSPQTPELVSALTFREWTCPNLKKLWLGKAVEDKNRRMRAFLACMKSDTPSMLNPANVPTHLLLMCCVLRYMVQWPGGRILHRHELDTFLAQAVSTQLYEPDRLQELKIEKLDARGIQLAALFMSGVDTALFANDACGQPVPWEHCCPWIYFDGKLFQSKLIKAGRERVSLVELCDGQADLATKVEKMRQSILEGVNMNHPPPSALLPSPTFVPPMVPSLYPVSLYSRAMGSMPLPPQGRSRGFAGLHPIPPQGGKLEIAGMVVGQWAGSRSSRGRGSFGMQVVSVGGPGKGHGKEQTGRGSKGHKKGNKQGSSDGVSKSLELHQGRSRSQVNGNSGALIKEEKSDHRLPAPSQCALSRDSNECNNGNRYLPMNNREKNHLQEQKLETVAQRKED [FAM120C]”, in data set [1], the “solubility change mitosis (log2)” value is -0.0292. Further, the “solubility in G1/S (log2)” value in data set [2] came out at 0.0177.

As for “MALEQALQAARQGELDVLRSLHAAGLLGPSLRDPLDALPVHHAARAGKLHCLRFLVEEAALPAAARARNGATPAHDASATGHLACLQWLLSQGGCRVQDKDNSGATVLHLAARFGHPEVVNWLLHHGGGDPTAATDMGALPIHYAAAKGDFPSLRLLVEHYPEGVNAQTKNGATPLYLACQEGHLEVTQYLVQECGADPHARAHDGMTPLHAAAQMGHSPVIVWLVSCTDVSLSEQDKDGATAMHFAASRGHTKVLSWLLLHGGEISADLWGGTPLHDAAENGELECCQILVVNGAELDVRDRDGYTAADLSDFNGHSHCTRYLRTVENLSVEHRVLSRDPSAELEAKQPDSGMSSPNTTVSVQPLNFDLSSPTSTLSNYDSCSSSHSSIKGQHPPCGLSSARAADIQSYMDMLNPELGLPRGTIGKPTPPPPPPSFPPPPPPPGTQLPPPPPGYPAPKPPVGPQAADIYMQTKNKLRHVETEALKKELSSCDGHDGLRRQDSSRKPRAFSKQPSTGDYYRQLGRCPGETLAARPGMAHSEEVRARQPARAGCPRLGPAARGSLEGPSAPPQAALLPGNHVPNGCAADPKASRELPPPPPPPPPPLPEAASSPPPAPPLPLESAGPGCGQRRSSSSTGSTKSFNMMSPTGDNSELLAEIKAGKSLKPTPQSKGLTTVFSGIGQPAFQPDSPLPSVSPALSPVRSPTPPAAGFQPLLNGSLVPVPPTTPAPGVQLDVEALIPTHDEQGRPIPEWKRQVMVRKMQLKMQEEEEQRRKEEEEEARLASMPAWRRDLLRKKLEEEREQKRKEEERQKQEELRREKEQSEKLRTLGYDESKLAPWQRQVILKKGDIAKY [ESPN]”, the “solubility change mitosis (log2)” value in data set [1] was -0.0492. Further, the “solubility in G1/S (log2)” value in data set [2] is -0.041.

For the substance “MGSKERFHWQSHNVKQSGVDDMVLLPQITEDAIAANLRKRFMDDYIFTYIGSVLISVNPFKQMPYFTDREIDLYQGAAQYENPPHIYALTDNMYRNMLIDCENQCVIISGESGAGKTVAAKYIMGYISKVSGGGEKVQHVKDIILQSNPLLEAFGNAKTVRNNNSSRFGKYFEIQFSRGGEPDGGKISNFLLEKSRVVMQNENERNFHIYYQLLEGASQEQRQNLGLMTPDYYYYLNQSDTYQVDGTDDRSDFGETLSAMQVIGIPPSIQQLVLQLVAGILHLGNISFCEDGNYARVESVDLLAFPAYLLGIDSGRLQEKLTSRKMDSRWGGRSESINVTLNVEQAAYTRDALAKGLYARLFDFLVEAINRAMQKPQEEYSIGVLDIYGFEIFQKNGFEQFCINFVNEKLQQIFIELTLKAEQEEYVQEGIRWTPIQYFNNKVVCDLIENKLSPPGIMSVLDDVCATMHATGGGADQTLLQKLQAAVGTHEHFNSWSAGFVIHHYAGKVSYDVSGFCERNRDVLFSDLIELMQTSEQAFLRMLFPEKLDGDKKGRPSTAGSKIKKQANDLVATLMRCTPHYIRCIKPNETKRPRDWEENRVKHQVEYLGLKENIRVRRAGFAYRRQFAKFLQRYAILTPETWPRWRGDERQGVQHLLRAVNMEPDQYQMGSTKVFVKNPESLFLLEEVRERKFDGFARTIQKAWRRHVAVRKYEEMREEASNILLNKKERRRNSINRNFVGDYLGLEERPELRQFLGKRERVDFADSVTKYDRRFKPIKRDLILTPKCVYVIGREKVKKGPEKGQVCEVLKKKVDIQALRGVSLSTRQDDFFILQEDAADSFLESVFKTEFVSLLCKRFEEATRRPLPLTFSDTLQFRVKKEGWGGGGTRSVTFSRGFGDLAVLKVGGRTLTVSVGDGLPKSSKPTRKGMAKGKPRRSSQAPTRAAPAPPRGMDRNGVPPSARGGPLPLEIMSGGGTHRPPRGPPSTSLGASRRPRARPPSEHNTEFLNVPDQGMAGMQRKRSVGQRPVPGVGRPKPQPRTHGPRCRALYQYVGQDVDELSFNVNEVIEILMEDPSGWWKGRLHGQEGLFPGNYVEKI [MYO1F]”, in data set [1], the “solubility change mitosis (log2)” value is -0.173. Besides, in data set [2], the “solubility in G1/S (log2)” value was -0.1.

Regarding “MAQGSHQIDFQVLHDLRQKFPEVPEVVVSRCMLQNNNNLDACCAVLSQESTRYLYGEGDLNFSDDSGISGLRNHMTSLNLDLQSQNIYHHGREGSRMNGSRTLTHSISDGQLQGGQSNSELFQQEPQTAPAQVPQGFNVFGMSSSSGASNSAPHLGFHLGSKGTSSLSQQTPRFNPIMVTLAPNIQTGRNTPTSLHIHGVPPPVLNSPQGNSIYIRPYITTPGGTTRQTQQHSGWVSQFNPMNPQQVYQPSQPGPWTTCPASNPLSHTSSQQPNQQGHQTSHVYMPISSPTTSQPPTIHSSGSSQSSAHSQYNIQNISTGPRKNQIEIKLEPPQRNNSSKLRSSGPRTSSTSSSVNSQTLNRNQPTVYIAASPPNTDELMSRSQPKVYISANAATGDEQVMRNQPTLFISTNSGASAASRNMSGQVSMGPAFIHHHPPKSRAIGNNSATSPRVVVTQPNTKYTFKITVSPNKPPAVSPGVVSPTFELTNLLNHPDHYVETENIQHLTDPTLAHVDRISETRKLSMGSDDAAYTQALLVHQKARMERLQRELEIQKKKLDKLKSEVNEMENNLTRRRLKRSNSISQIPSLEEMQQLRSCNRQLQIDIDCLTKEIDLFQARGPHFNPSAIHNFYDNIGFVGPVPPKPKDQRSIIKTPKTQDTEDDEGAQWNCTACTFLNHPALIRCEQCEMPRHF [TAB2]”, the “solubility change mitosis (log2)” value in data set [1] is -0.0447. Moreover, the “solubility in G1/S (log2)” value in data set [2] came out at 0.348.

The values above are taken from the supplement of paper PMC5998384.
